Test system: serum uric acid (sUA)
Assay: Serum uric acid (sUA) levels and sUA responders, open-label study of pegloticase with MTX (NCT03635957)
Format: in vivo, human
Description: The primary objective is to estimate the response rate during Month 6 (Weeks 20, 22, and 24), as measured by the sustained normalization of serum uric acid (SUA) to <6 mg/dL for at least 80% of the time during Month 6 in subjects receiving KXX with MTX.
The primary efficacy outcome endpoint is the sustained normalization of SUA to <6 mg/dL for at least 80% of the time during month 6 (weeks 20, 22, and 24) in subjects receiving KXX with MTX. This is slightly below the urate solubility threshold and this threshold has been the accepted standard for nearly all modern gout trials. Participants who achieve this endpoint were classified as “responders.” Serum uric acid (SUA) responders may also be defined as participants achieving and maintaining SUA <6 mg/dL for at least 80% of the time during Month 6 (Weeks 20, 22, and 24).
Blood samples may be collected prior to each pegloticase infusion for measurement of SUA levels using the Beckman Coulter AU System Uric Acid procedure. Participants were declared “non-responders” if there were SUA measures >6 mg/dL at 2 consecutive study visits beginning with the week 2 visit. […] If the SUA goal is not maintained before or at the 12-week mark, it was assumed that the participant had developed clinically relevant anti-pegloticase antibody and they received no further infusions. This assumption and subsequent discontinuation of pegloticase was consistent with the protocol of large phase III randomized controlled trials and the product label. A formal stopping rule was 2 occasions of SUA levels of greater than 6 mg/dL.
Clinical Chemistry—Blood samples were collected prior to each pegloticase infusion for measurement of SUA levels (primary efficacy parameter) using the Beckman Coulter AU System Uric Acid procedure. In this procedure uric acid is converted to hydrogen peroxide. Hydrogen peroxide reacts with reagent to produce a chromophore which is read bichromatically at 660/800 nm. The amount of dye formed is proportional to the uric acid concentration in the sample.
Serum samples for measurement of SUA levels were collected at the Screening Visit, the Week −4 Visit (prior to the first dose of MTX), and the Week −2 Visit during the MTX Run-in Period; within 48 hours prior to each pegloticase infusion and after the end of each pegloticase infusion prior to discharge from the site during the Pegloticase+IMM Period; at the non-infusion Week 52/End of Study/Early Termination Visits and at the Post Treatment 3 and 6 Month Follow-up Visits. Additional serum samples for SUA levels were collected at optional non-infusion (Frequent Sampling) Visits at Weeks 1 and 7. […] Subjects with SUA level >6 mg/dL at 2 consecutive visits beginning at Week 2 visit discontinued treatment, completed the End of Pegloticase Infusion Visit procedures within 2 weeks and continued the subject visits according to the protocol (without treatment).
Efficacy analyses were performed using the modified intention-to-treat (mITT) population, defined as all enrolled subjects who received ≥1 dose of pegloticase. The proportion of Month 6 responders was summarized, along with a 95% confidence interval for the proportion. The proportion of Month 3 and overall (Months 3 and 6 combined) responders was analyzed similarly.
A subject was declared a non-responder if the subject had SUA level >6 mg/dL at 2 consecutive study visits beginning with the Week 2 Visit. In addition, a subject who withdraws from study treatment for any reason after the first dose of pegloticase in the KXX+MTX Period and prior to Month 6 (for the primary endpoint) or Month 3 (for the secondary endpoint) was considered a non-responder if SUA values were not collected at the planned time points.
Patients were administered oral MTX (15 mg/week) and folate (1 mg/day) 4 weeks prior to the first pegloticase infusion (Day 1) and throughout the pegloticase treatment period. […]

[1] = Week 6 - Pre-Infusion, Month 6 sUA Responders
[2] = Week 6 - Pre-Infusion, mITT, n=13
[3] = Week 8 - Post-Infusion, Month 6 sUA Non-Responders
[4] = Week 8 - Post-Infusion, Month 6 sUA Responders
[5] = Week 8 - Post-Infusion, mITT, n=12
[6] = Week 8 - Pre-Infusion, Month 6 sUA Non-Responders
[7] = Week 8 - Pre-Infusion, Month 6 sUA Responders
[8] = Week 8 - Pre-Infusion, mITT, n=12
[9] = Week 10 - Post-Infusion, Month 6 sUA Responders
[10] = Week 10 - Post-Infusion, mITT, n=11
[11] = Week 10 - Pre-Infusion, Month 6 sUA Non-Responders
[12] = Week 10 - Pre-Infusion, Month 6 sUA Responders
[13] = Week 10 - Pre-Infusion, mITT, n=12
[14] = Week 12 - Post-Infusion, Month 6 sUA Responders
[15] = Week 12 - Post-Infusion, mITT, n=10
[16] = Week 12 - Pre-Infusion, Month 6 sUA Responders
[17] = Week 12 - Pre-Infusion, mITT, n=11
[18] = Week 14 - Post-Infusion, Month 6 sUA Responders
[19] = Week 14 - Post-Infusion, mITT, n=10
[20] = Week 14 - Pre-Infusion, Month 6 sUA Responders
[21] = Week 14 - Pre-Infusion, mITT, n=11
[22] = Week 16 - Post-Infusion, Month 6 sUA Responders
[23] = Week 16 - Post-Infusion, mITT, n=11
[24] = Week 16 - Pre-Infusion, Month 6 sUA Responders
[25] = Week 16 - Pre-Infusion, mITT, n=11
[26] = Week 18 - Post-Infusion, Month 6 sUA Responders
[27] = Week 18 - Post-Infusion, mITT, n=11

B1: pegloticase (protein)
chain: TYKKNDEVEFVRTGYGKDMIKVLHIQRDGKYHSIKEVATTVQLTLSSKKDYLHGDNSDVIPTDTIKNTVNVLAKFKGIKSIETFAVTICEHFLSSFKHVIRAQVYVEEVPWKRFEKNGVKHVHAFIYTPTGTHFCEVEQIRNGPPVIHSGIKDLKVLKTTQSGFEGFIKDQFTTLPEVKDRCFATQVYCKWRYHQGRDVDFEATWDTVRSIVLQKFAGPYDKGEYSPSVQKTLYDIQVLTLGQVPEIEDMEISLPNIHYLNIDMSKMGLINKEEVLLPLDNPYGKITGTVKRKLSSRL
modifications: monomethoxy PEG conjugated; Krystexxa Sequence
notes: covalent conjugate of uricase produced by a genetically modified strain of Escherichia coli and monomethoxypoly (ethylene glycol)
sUA < 6 mg/dL, % [1]: (100%)
sUA Change from Baseline, Mean [1]: -8.97 mg/dL
sUA Change from Baseline, Median [1]: -8.80 mg/dL
sUA Observed, Mean [1]: 0.30 mg/dL
sUA Observed, Median [1]: 0.30 mg/dL
sUA < 6 mg/dL, n (%) [2]: 12 (92.3%)
sUA Change from Baseline, Mean (SD) [2]: −8.31 (3.538) mg/dL
sUA Change from Baseline, Median [2]: -8.80 mg/dL
sUA Observed, Mean (SD) [2]: 0.91 (2.191) mg/dL
sUA Observed, Median [2]: 0.30 mg/dL
sUA < 6 mg/dL, % (Week 7, Month 6 sUA Responders): (100%)
sUA Change from Baseline, Mean (Week 7, Month 6 sUA Responders): -8.90 mg/dL
sUA Observed, Mean (Week 7, Month 6 sUA Responders): 0.30 mg/dL
sUA < 6 mg/dL, n (%) (Week 7, mITT, n=4): 4 (100%)
sUA Change from Baseline, Mean (SD) (Week 7, mITT, n=4): −8.90 (4.755) mg/dL
sUA Change from Baseline, Median (Week 7, mITT, n=4): -7.85 mg/dL
sUA Observed, Mean (SD) (Week 7, mITT, n=4): 0.30 (0.000) mg/dL
sUA Observed, Median (Week 7, mITT, n=4): 0.30 mg/dL
sUA < 6 mg/dL, % [3]: (100%)
sUA Change from Baseline, Mean [3]: -9.10 mg/dL
sUA Observed, Mean [3]: 0.30 mg/dL
sUA < 6 mg/dL, % [4]: (100%)
sUA Change from Baseline, Mean [4]: -8.97 mg/dL
sUA Observed, Mean [4]: 0.30 mg/dL
sUA < 6 mg/dL, n (%) [5]: 12 (100%)
sUA Change from Baseline, Mean (SD) [5]: −8.98 (2.679) mg/dL
sUA Change from Baseline, Median [5]: -8.95 mg/dL
sUA Observed, Mean (SD) [5]: 0.30 (0.000) mg/dL
sUA Observed, Median [5]: 0.30 mg/dL
sUA Change from Baseline, Mean [6]: -0.50 mg/dL
sUA Observed, Mean [6]: 8.90 mg/dL
sUA < 6 mg/dL, % [7]: (100%)
sUA Change from Baseline, Mean [7]: -8.91 mg/dL
sUA Observed, Mean [7]: 0.37 mg/dL
sUA < 6 mg/dL, n (%) [8]: 11 (91.7%)
sUA Change from Baseline, Mean (SD) [8]: −8.20 (3.624) mg/dL
sUA Change from Baseline, Median [8]: -8.33 mg/dL
sUA Observed, Mean (SD) [8]: 1.08 (2.472) mg/dL
sUA Observed, Median [8]: 0.30 mg/dL
sUA < 6 mg/dL, % [9]: (100%)
sUA Change from Baseline, Mean [9]: -8.97 mg/dL
sUA Change from Baseline, Median [9]: -8.80 mg/dL
sUA Observed, Mean [9]: 0.30 mg/dL
sUA Observed, Median [9]: 0.30 mg/dL
sUA < 6 mg/dL, n (%) [10]: 11 (100%)
sUA Change from Baseline, Mean (SD) [10]: −8.97 (2.810) mg/dL
sUA Change from Baseline, Median [10]: -8.80 mg/dL
sUA Observed, Mean (SD) [10]: 0.30 (0.000) mg/dL
sUA Observed, Median [10]: 0.30 mg/dL
sUA Change from Baseline, Mean [11]: -1.30 mg/dL
sUA Observed, Mean [11]: 8.10 mg/dL
sUA < 6 mg/dL, % [12]: (100%)
sUA Change from Baseline, Mean [12]: -8.97 mg/dL
sUA Observed, Mean [12]: 0.30 mg/dL
sUA < 6 mg/dL, n (%) [13]: 11 (91.7%)
sUA Change from Baseline, Mean (SD) [13]: −8.33 (3.476) mg/dL
sUA Change from Baseline, Median [13]: -8.70 mg/dL
sUA Observed, Mean (SD) [13]: 0.95 (2.252) mg/dL
sUA Observed, Median [13]: 0.30 mg/dL
sUA < 6 mg/dL, % [14]: (100%)
sUA Change from Baseline, Mean [14]: -9.13 mg/dL
sUA Change from Baseline, Median [14]: -9.05 mg/dL
sUA Observed, Mean [14]: 0.30 mg/dL
sUA Observed, Median [14]: 0.30 mg/dL
sUA < 6 mg/dL, n (%) [15]: 10 (100%)
sUA Change from Baseline, Mean (SD) [15]: −9.13 (2.911) mg/dL
sUA Change from Baseline, Median [15]: -9.05 mg/dL
sUA Observed, Mean (SD) [15]: 0.30 (0.000) mg/dL
sUA Observed, Median [15]: 0.30 mg/dL
sUA < 6 mg/dL, % [16]: (100%)
sUA Change from Baseline, Mean [16]: -8.98 mg/dL
sUA Change from Baseline, Median [16]: -8.80 mg/dL
sUA Observed, Mean [16]: 0.30 mg/dL
sUA Observed, Median [16]: 0.30 mg/dL
sUA < 6 mg/dL, n (%) [17]: 11 (100%)
sUA Change from Baseline, Mean (SD) [17]: −8.98 (2.806) mg/dL
sUA Change from Baseline, Median [17]: -8.80 mg/dL
sUA Observed, Mean (SD) [17]: 0.30 (0.015) mg/dL
sUA Observed, Median [17]: 0.30 mg/dL
sUA < 6 mg/dL, % [18]: (100%)
sUA Change from Baseline, Mean [18]: -9.01 mg/dL
sUA Change from Baseline, Median [18]: -9.05 mg/dL
sUA Observed, Mean [18]: 0.30 mg/dL
sUA Observed, Median [18]: 0.30 mg/dL
sUA < 6 mg/dL, n (%) [19]: 10 (100%)
sUA Change from Baseline, Mean (SD) [19]: −9.01 (2.959) mg/dL
sUA Change from Baseline, Median [19]: -9.05 mg/dL
sUA Observed, Mean (SD) [19]: 0.30 (0.000) mg/dL
sUA Observed, Median [19]: 0.30 mg/dL
sUA < 6 mg/dL, % [20]: (100%)
sUA Change from Baseline, Mean [20]: -8.97 mg/dL
sUA Change from Baseline, Median [20]: -8.80 mg/dL
sUA Observed, Mean [20]: 0.30 mg/dL
sUA Observed, Median [20]: 0.30 mg/dL
sUA < 6 mg/dL, n (%) [21]: 11 (100%)
sUA Change from Baseline, Mean (SD) [21]: −8.97 (2.810) mg/dL
sUA Change from Baseline, Median [21]: -8.80 mg/dL
sUA Observed, Mean (SD) [21]: 0.30 (0.000) mg/dL
sUA Observed, Median [21]: 0.30 mg/dL
sUA < 6 mg/dL, % [22]: (100%)
sUA Change from Baseline, Mean [22]: -8.97 mg/dL
sUA Change from Baseline, Median [22]: -8.80 mg/dL
sUA Observed, Mean [22]: 0.30 mg/dL
sUA Observed, Median [22]: 0.30 mg/dL
sUA < 6 mg/dL, n (%) [23]: 11 (100%)
sUA Change from Baseline, Mean (SD) [23]: −8.97 (2.810) mg/dL
sUA Change from Baseline, Median [23]: -8.80 mg/dL
sUA Observed, Mean (SD) [23]: 0.30 (0.000) mg/dL
sUA Observed, Median [23]: 0.30 mg/dL
sUA < 6 mg/dL, % [24]: (100%)
sUA Change from Baseline, Mean [24]: -8.97 mg/dL
sUA Change from Baseline, Median [24]: -8.80 mg/dL
sUA Observed, Mean [24]: 0.30 mg/dL
sUA Observed, Median [24]: 0.30 mg/dL
sUA < 6 mg/dL, n (%) [25]: 11 (100%)
sUA Change from Baseline, Mean (SD) [25]: −8.97 (2.810) mg/dL
sUA Change from Baseline, Median [25]: -8.80 mg/dL
sUA Observed, Mean (SD) [25]: 0.30 (0.000) mg/dL
sUA Observed, Median [25]: 0.30 mg/dL
sUA < 6 mg/dL, % [26]: (100%)
sUA Change from Baseline, Mean [26]: -8.97 mg/dL
sUA Change from Baseline, Median [26]: -8.80 mg/dL
sUA Observed, Mean [26]: 0.30 mg/dL
sUA Observed, Median [26]: 0.30 mg/dL
sUA < 6 mg/dL, n (%) [27]: 11 (100%)
sUA Change from Baseline, Mean (SD) [27]: −8.97 (2.810) mg/dL
sUA Change from Baseline, Median [27]: -8.80 mg/dL
sUA Observed, Mean (SD) [27]: 0.30 (0.000) mg/dL
sUA Observed, Median [27]: 0.30 mg/dL
sUA < 6 mg/dL, % (Week 18 - Pre-Infusion, Month 6 sUA Responders): (100%)
